“Also recorded” adds a separate entry of the source.
Target: T1, endogenous PTP1B-OX (Homo sapiens, UniProt P18031)
T1 construct: endogenous in cells; host or cells: 293T cells (transfected only with the scFv intrabody)
T1 sequence (P18031 1-435): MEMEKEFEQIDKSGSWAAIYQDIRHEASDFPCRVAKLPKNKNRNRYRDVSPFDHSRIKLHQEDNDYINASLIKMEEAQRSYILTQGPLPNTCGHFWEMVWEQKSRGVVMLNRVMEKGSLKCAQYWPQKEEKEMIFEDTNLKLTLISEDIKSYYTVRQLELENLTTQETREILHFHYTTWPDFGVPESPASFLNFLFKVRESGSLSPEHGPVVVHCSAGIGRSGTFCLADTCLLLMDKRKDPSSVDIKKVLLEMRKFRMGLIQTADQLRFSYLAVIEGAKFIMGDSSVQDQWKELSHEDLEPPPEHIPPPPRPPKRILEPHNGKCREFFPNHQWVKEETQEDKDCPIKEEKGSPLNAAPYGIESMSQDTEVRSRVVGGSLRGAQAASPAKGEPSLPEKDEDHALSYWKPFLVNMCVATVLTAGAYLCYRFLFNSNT
Assay: Intrabody interaction in 293T cells treated with H2O2 (Ni-NTA pull down / anti-PTP1B immunoprecipitation)
Format: cell-based
Details: 1 mM H2O2 5 minutes, FIGS. 11, 12
Procedure, shortened: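 293T cells transiently expressing HA-detected scFv intrabodies, serum-starved 16 h, then 1 mM H2O2 for 5 min or 20 mM NAC for 1 h at 37 °C (NAC lysates with 2 mM TCEP). Complexes from 1 mg lysate captured by Ni-NTA pull-down or anti-PTP1B (FG6) IP; PTP1B and intrabody detected by immunoblot.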

B1: scFv45: conformation-sensor scFv binding PTP1B-OX, SEQ ID NO: 26 and 78; expressed as intrabody (protein)
scFv: MKKTAIAIAVALAGFATVAQAALTQPSSVSANPGGTVKITCSGSSSAYGYGWYQQKSPGSAPVTVIYNNNKRPSNIPSRFSGSKSGSTGTLTITGVQAEDEAVYFCGSEDSSTDAIFGAGTTLTVLGQSSRSSTVTLDESGGGLQAPGGALSLVCKASGFTFSSYDMGWIRQAPGKGLEYVAGITDNGRYASYGSAVDGRATISRDNGQSSVRLQLNNLRAEDTGTYYCARDDGSGWTGNSIDAWGHGTEVIVSSTSGQAGQHHHHHHGAYPYDVPDYAS
binding of intrabody to endogenous PTP1B-OX: interaction between scFv45 and PTP1B-OX was observed; also recorded: co-pulldown of PTP1B-OX in the presence of H2O2

B2: scFv57: scFv binding PTP1B-OX, SEQ ID NO: 27 and 90 (protein)
scFv: MKKTAIAIAVALAGFATVAQAALTQPSSVSANPGAFNKITCSGSSSAYGYGWNQQKSPGSAPVTVIYNNNKRPSNIPSRFSGSKSGSTGTLTITGDQDEDEDFYFCGSEYSSTDAIFGAGTTLTVLGQSSRSSTVTLDESGGGLQAPGGALSLVCKASGFTFSSYDMGWIPQAPGKGLEYVAGITDNGIYASYGSAVDGRATISRDNRQSSVKLQLNNLKADDTGTYYCARDDGSGWTGNSIDAWGHGTEVIVSSTSGQAGQHHHHHHGAYPYDVPDYAS
binding of intrabody to endogenous PTP1B-OX: bound to endogenous PTP1B-OX strongly
